Laboratory results: publication PMC9811221 (The Journal of Biological Chemistry, 2022)

Assays:
Conditions in all cases: both partners purified
[1] = target: T1, PD-L1 D1D2 (residues 18-237) (human, UniProt Q9NZQ7); experiment: BLI; biotinylated avitagged PD-1 (5 ug/ml) on streptavidin biosensors; 3 uM PD-L1 D1D2 alone or with 20 uM VHH; 25 C
T1 construct: PD-L1 (programmed death-ligand 1, B7-H1, CD274), human, extracellular region D1D2, residues 18-237; also called extracellular region of PD-L1

PD-L2-Fc (Generon) = target: T2, PD-L2-Fc (Generon) (Homo sapiens (assumed), UniProt Q9BQ51); experiment: BLI; PD-L2-Fc (2 ug/ml) on Protein G biosensors; VHHs at 10 uM; 25 C
T2 construct: PD-L2 (programmed cell death 1 ligand 2), extracellular region; No catalogue number printed; also called extracellular region of PD-L2 with a Fc tag; source: bought: Generon

PD-L1-Fc fusion protein [2] = target: T3, PD-L1-Fc fusion protein (Homo sapiens, UniProt Q9NZQ7); experiment: BLI; PD-L1-Fc (5 ug/ml) loaded on Protein G biosensors, VHH in solution (10 uM to 0.3 nM); Octet QKe, 25 °C, PBS pH 7.4, 0.01% Tween-20, 0.1% BSA; steady-state analysis of the maximum responses, one-site specific-binding model in Prism 9
T3 construct: PD-L1 (programmed cell death 1 ligand 1, B7-H1, CD274) part of a bought PD-L1-Fc fusion protein; Probably the extracellular region; Held on Protein G biosensors by the Fc; also called programmed death-ligand 1; B7-H1; source: bought: Invitrogen

[3] = target: T4, PD-L1 D1 (residues 18-134) (human, UniProt Q9NZQ7 18-134); experiment: NMR titration; chemical shift perturbation (minimal shift) mapping: labelled PD-L1 D1 free and with a 60% molar excess of CD80; 15N/1H TROSY; 25 C; 25 mM KH2PO4 pH 7.4, 25 mM NaCl, 10 uM EDTA
T4 construct: PD-L1 (programmed death-ligand 1, B7-H1, CD274), human, IgV-like domain D1, residues 18-134; Uniformly 15N/13C labelled for NMR; the sentence on constructs can be read as giving a C-terminal avitag to this construct too; also called PD-L D1

PD-L1-Fc fusion protein [4] = target: T3, PD-L1-Fc fusion protein; experiment: BLI; PD-L1-Fc (5 ug/ml) loaded on Protein G biosensors, VHH in solution (10 uM to 0.3 nM); Octet QKe, 25 °C, PBS pH 7.4, 0.01% Tween-20, 0.1% BSA; kinetic analysis, global model 'association kinetics' in Prism 9

T1 sequence (Q9NZQ7 18-237): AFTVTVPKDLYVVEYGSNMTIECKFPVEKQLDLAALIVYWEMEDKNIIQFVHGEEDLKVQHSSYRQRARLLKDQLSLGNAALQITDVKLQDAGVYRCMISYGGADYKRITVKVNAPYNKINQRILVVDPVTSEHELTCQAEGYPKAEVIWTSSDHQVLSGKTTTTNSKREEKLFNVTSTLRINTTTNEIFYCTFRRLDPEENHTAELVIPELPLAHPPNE
T3 sequence (Q9NZQ7 19-238): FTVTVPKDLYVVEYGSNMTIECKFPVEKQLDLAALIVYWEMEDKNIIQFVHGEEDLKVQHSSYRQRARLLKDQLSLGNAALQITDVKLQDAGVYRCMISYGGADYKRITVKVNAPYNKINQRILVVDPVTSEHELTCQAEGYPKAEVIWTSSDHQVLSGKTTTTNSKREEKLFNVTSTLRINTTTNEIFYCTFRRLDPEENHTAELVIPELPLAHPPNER
T2 sequence (Q9BQ51 20-220): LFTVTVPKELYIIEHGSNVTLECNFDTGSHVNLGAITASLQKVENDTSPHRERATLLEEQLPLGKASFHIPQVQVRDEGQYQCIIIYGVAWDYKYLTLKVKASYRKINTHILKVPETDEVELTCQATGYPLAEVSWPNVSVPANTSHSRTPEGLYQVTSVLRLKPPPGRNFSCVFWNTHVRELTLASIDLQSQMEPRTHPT
T4 sequence (Q9NZQ7 18-134): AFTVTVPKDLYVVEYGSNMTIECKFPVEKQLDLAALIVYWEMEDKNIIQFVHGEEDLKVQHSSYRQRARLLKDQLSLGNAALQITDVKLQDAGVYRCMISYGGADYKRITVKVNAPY

| percent inhibition of PD-L1 D1D2 binding to PD-1 at 20 uM VHH [1] | binding result (PD-L2-Fc (Generon)) | Binder | further results |
| --- | --- | --- | --- |
| > 90% | no binding (tested: 10 μM) | VHH14 (VHH, TEV-cleavable tag) VHH: EVQLVESGGGLVQAGDSLRLSCTASARTFIKYAMGWFRQAPGKEREFVAAISWSGSRTTYADSVKGRFTISRDNDKNTVYLQMNTLEPEDTAIYYCAKAKGGYHSSQYDYDYWGQGTQVTVSS | – |
| > 90% | no binding (tested: 10 μM) | VHH9 (VHH, TEV-cleavable tag; source: E. coli BL21(DE3), soluble, purified (Ni-NTA, gel filtration)) VHH: QVQLVESGGKLVQAGGSLRLSCAASGRSIVPYAMGWFRQAPGKEREFVAVIDWSGFRTYYADSVKGRFTISRDNAKNTVYLEMSSLKPEDTAVYYCAQAGYGLGYRIHANEYHYWGQGTQVTVSS | – |
| – | – | VHH9 (VHH, The His6 tag is TEV-cleavable; also called anti-PD-L1 VHH 9; source: E. coli BL21(DE3), soluble expression, purified (Ni-NTA, gel filtration)) VHH: QVQLVESGGKLVQAGGSLRLSCAASGRSIVPYAMGWFRQAPGKEREFVAVIDWSGFRTYYADSVKGRFTISRDNAKNTVYLEMSSLKPEDTAVYYCAQAGYGLGYRIHANEYHYWGQGTQVTVSS | Kd (PD-L1-Fc fusion protein [2]): 0.7 nM |
| – | – | extracellular region of CD80 (residues 35-235) (domain or fragment, human, UniProt P33681 35-235, looked up, CD80 (Cluster of differentiation 80, B7-1), human; construct 1-235 with the native signal peptide; final purified protein holds residues 35 to 235 after signal peptide cleavage; Glycosylated form; also called B7-1; source: expiCHO cells with kifunensine, secreted, purified (Ni-NTA, gel filtration)) VIHVTKEVKEVATLSCGHNVSVEELAQTRIYWQKEKKMVLTMMSGDMNIWPEYKNRTIFDITNNLSIVILALRPSDEGTYECVVLKYEKDAFKREHLAEVTLSVKADFPTPSISDFEIPTSNIRRIICSTSGGFPEPHLSWLENGEELNAINTTVSQDPETELYAVSSKLDFNMTTNHSFMCLIKYGHLRVNQTFNWNTTK | binding result [3]: binds |
| > 90% | no binding (tested: 10 μM) | VHH15 (VHH, TEV-cleavable tag) VHH: EVQLVESGGGLVQAGGSLRLSCAASGRTSSIYVMAWFRQAPGKERELVAAISTSGNTVYPNSVKGRFTISRDNAKSTVYLQMNSLKPEDTAVYFCNADRTTYSSGRYSSQDYWGQGTQVTVSS | – |
| – | – | VHH15 (VHH, The His6 tag is TEV-cleavable; also called anti-PD-L1 VHH 15) VHH: EVQLVESGGGLVQAGGSLRLSCAASGRTSSIYVMAWFRQAPGKERELVAAISTSGNTVYPNSVKGRFTISRDNAKSTVYLQMNSLKPEDTAVYFCNADRTTYSSGRYSSQDYWGQGTQVTVSS | Kd (PD-L1-Fc fusion protein [2]): 9.2 nM |
| > 90% | no binding (tested: 10 μM) | VHH21 (VHH, TEV-cleavable tag; Two cysteines within CDR 3 form an additional disulfide bond (confirmed by mass spectrometry)) VHH: EVQLVESGGGLVQTGGSLRLSCAASGRTFDSYFMGWFRQAPGKEREFVAAISGSGSLTSYEDGVKGRFTISRDNAKNTVSLQMTNLKPEDTAVYYCASCLSCAFINGRQVDSRYYNYWGQGTQVTVSS | – |
| > 90% | no binding (tested: 10 μM) | VHH18 (VHH, TEV-cleavable tag; CDR 1 and 2 identical to VHH16, CDR 3 distinct) VHH: EVQLVESGGGWVQTGGSLRLSCAASGSTFDIKRMAWYRQAPGKEREFVADIWSEGSTHYADSVKGRFTISRDSAKNTMYLYMNSLKPEDTAVYYCNVEYVLRTYWGQGTQVTVSS | – |
| > 90% | no binding (tested: 10 μM) | VHH16 (VHH, TEV-cleavable tag; CDR 1 and 2 identical to VHH18, CDR 3 distinct) VHH: QVQLVESGGGWVQTGGSLRLSCAASGSTFDIKRMAWYRQAPGKEREFVADIWSEGSTHYADSVKGRFTISRDSAKNTMYLQMNSLKPEDTAAYYCNVGNTWGQGTQVTVSS | – |
| > 90% | no binding (tested: 10 μM) | VHH17 (VHH, TEV-cleavable tag) VHH: EVQLVESGGGLVQAGGSLRLSCAASGRTFSAYAMGWFRQAPGKERELVAGISWSGGMTYYADSVKGRFTISRDNAKNMVYLQMNSLKAEDTAVYYCAGGFSAVVPDHPDEYHYWGQGTQVTVSS | – |
| > 90% | no binding (tested: 10 μM) | VHH19 (VHH, TEV-cleavable tag) VHH: EVQLVESGGGSVQAGASLRLSCAASGFPFSHYAIGWFRQAPGKEREFVTSIDRSGINTYYADSVKGRFTISRDNAKNAVSLQMNSLKPDDTAVYYCAAGPRLVTSPELYPYWGQGTQVTVSS | – |
| > 90% | no binding (tested: 10 μM) | VHH4 (VHH, TEV-cleavable tag) VHH: EVQLVESGGGLVQAGDSLRLSCTASGRNFIIYTLAWFRQAPGKEREFVAGISWSGGSTKYADPVKGRFTISRDNAKNTVYLQMNSLHSDDTGVYYCGAQRGATIDLKYGMESWGKGTQVTVSS | – |
| – | – | VHH4 (VHH, The His6 tag is TEV-cleavable; also called anti-PD-L1 VHH 4) VHH: EVQLVESGGGLVQAGDSLRLSCTASGRNFIIYTLAWFRQAPGKEREFVAGISWSGGSTKYADPVKGRFTISRDNAKNTVYLQMNSLHSDDTGVYYCGAQRGATIDLKYGMESWGKGTQVTVSS | Kd (PD-L1-Fc fusion protein [4]): 48 nM; koff (PD-L1-Fc fusion protein [4]): 0.029 s⁻¹; kon (PD-L1-Fc fusion protein [4]): 590000 M⁻¹ s⁻¹; Kd (PD-L1-Fc fusion protein [2]): 59 nM |
| > 90% | no binding (tested: 10 μM) | VHH20 (VHH, TEV-cleavable tag) VHH: EVQLVESGGGSVQAGGSLRLSCVASGIAFSESPMAWYRQAPGRQREFVADVSADNKPYYRDTLKGRFTISRDNDKNSVYLQMNFLQPEDTAVYYCNALLLEAGTIKNYWGQGTQVTVSS | – |
| > 90% | no binding (tested: 10 μM) | VHH22 (VHH, TEV-cleavable tag) VHH: EVQLVESGGGLVQAGGSLKLSCAASGRTFSGNTMGWFRQAPGKERELVTVVSSGGSTYYSDSVKGRFTISRDNALNTVYLQMNSLKPEDTAVYYCAAASLISGLTTTRRLFDYWGQGTQVTVSS | – |
| > 90% | no binding (tested: 10 μM) | VHH13 (VHH, TEV-cleavable tag) VHH: EVQLVESGGGLVQPGGSLRLSCAASGSTFSINAMGWYRQAPGKQRELVAAISSGGSTNYADSVKGRFTISRDNAKNTVYLQMNSLKPEDTAVYYCNTINIGTFISLGGSPLGSWGQGTQVTVSS | – |
| > 90% | no binding (tested: 10 μM) | VHH2 (VHH, TEV-cleavable tag; source: E. coli BL21(DE3), purified (Ni-NTA, gel filtration)) VHH: QVQLVESGGGSVQPGGSLRLSCAASGSIVGHAVQAWYRQAPGKQRDLVAQLFDNGKTNIADSVKGRFTISGDNAKNTFYLQMNNLKPEDTAIYYCAILILPSMGVPPNIYEGQGTQVTVSS | – |
| > 90% | no binding (tested: 10 μM) | VHH10 (VHH, TEV-cleavable tag) VHH: EVQLVESGGGLVQAGDSLRLSCAASGRAFSGYAMAWFRQAPEKEREFVAAITWRGGTPYYAVRAKGRFTISRDSAKNTAYLEVNSLKPEDTATYYCAAPSLQVATMDVKDYAYWGQGTLVTVSS | – |
